Assay results: PMC10992053, “Rationally introducing non-canonical amino acids to enhance catalytic activity of LmrR for Henry reaction” (Bioresources and Bioprocessing, 2024)

Tested on: O=Cc1ccc([N+](=O)[O-])cc1
Experiment: Henry reaction, product by HPLC, Michaelis-Menten fit
Assay type: biochemical, Lactococcus cremoris
Settings: nitromethane 1 M (excess), 3-18 mM aldehyde, 0.3 mg/mL enzyme, 40 °C, 5 min
Text: Henry reaction, product by HPLC, Michaelis-Menten fit on LmrR (Lactococcal multidrug resistance Regulator)

For “LmrR (Lactococcal multidrug resistance Regulator) (Lactococcus cremoris subsp. cremoris MG1363; V15F)”, which Km is on record?
Its Km is 8.28 mM.

What about the Vmax of the same substance?
Its Vmax is 1960 µM/min.

And the kcat?
Its kcat is 1.47 s⁻¹.

What about the kcat/Km of the same substance?
The kcat/Km was 178 M⁻¹ s⁻¹.
